Experimental data as given in PMC3587840 (Nature, 2010).
Residue numbers refer to the chain shown, from its start. In names and notes the source's numbering stands. Blank lines part the entries; values can stand above or below the binder they belong to.

Experiments:
[1] = target: T1, mouse PlxnA2_(1–4), C-terminal His-tag (mouse, UniProt P70207 35-703); assay: SPR
T1 sequence: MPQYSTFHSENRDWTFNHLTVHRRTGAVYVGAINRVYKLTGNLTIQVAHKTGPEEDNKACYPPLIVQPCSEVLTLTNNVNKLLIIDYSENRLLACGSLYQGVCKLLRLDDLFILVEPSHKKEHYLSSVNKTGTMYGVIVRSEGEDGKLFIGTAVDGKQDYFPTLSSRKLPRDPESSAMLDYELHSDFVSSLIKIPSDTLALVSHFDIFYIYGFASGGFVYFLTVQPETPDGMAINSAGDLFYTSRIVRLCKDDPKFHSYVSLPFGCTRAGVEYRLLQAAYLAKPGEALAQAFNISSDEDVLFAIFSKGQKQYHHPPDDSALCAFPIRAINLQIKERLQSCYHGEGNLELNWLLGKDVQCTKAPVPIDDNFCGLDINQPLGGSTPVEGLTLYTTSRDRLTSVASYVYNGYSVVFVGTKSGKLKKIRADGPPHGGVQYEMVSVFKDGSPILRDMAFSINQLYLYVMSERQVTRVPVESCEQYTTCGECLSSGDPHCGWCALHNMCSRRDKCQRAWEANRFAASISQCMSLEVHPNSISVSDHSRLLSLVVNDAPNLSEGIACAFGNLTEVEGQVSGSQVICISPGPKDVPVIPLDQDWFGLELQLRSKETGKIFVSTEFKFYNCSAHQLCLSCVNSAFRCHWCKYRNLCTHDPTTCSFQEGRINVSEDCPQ

PlxnA2_(1–4)(D193K) = PlxnA2_(1–4)(D193K) (mouse, UniProt P70207 35-703, D193K); assay: SPR
SEMA4D_(ecto)(K395D) = target: T2, SEMA4D_(ecto)(K395D) (human, UniProt Q92854 22-677, K395D); assay: SPR
T2 sequence: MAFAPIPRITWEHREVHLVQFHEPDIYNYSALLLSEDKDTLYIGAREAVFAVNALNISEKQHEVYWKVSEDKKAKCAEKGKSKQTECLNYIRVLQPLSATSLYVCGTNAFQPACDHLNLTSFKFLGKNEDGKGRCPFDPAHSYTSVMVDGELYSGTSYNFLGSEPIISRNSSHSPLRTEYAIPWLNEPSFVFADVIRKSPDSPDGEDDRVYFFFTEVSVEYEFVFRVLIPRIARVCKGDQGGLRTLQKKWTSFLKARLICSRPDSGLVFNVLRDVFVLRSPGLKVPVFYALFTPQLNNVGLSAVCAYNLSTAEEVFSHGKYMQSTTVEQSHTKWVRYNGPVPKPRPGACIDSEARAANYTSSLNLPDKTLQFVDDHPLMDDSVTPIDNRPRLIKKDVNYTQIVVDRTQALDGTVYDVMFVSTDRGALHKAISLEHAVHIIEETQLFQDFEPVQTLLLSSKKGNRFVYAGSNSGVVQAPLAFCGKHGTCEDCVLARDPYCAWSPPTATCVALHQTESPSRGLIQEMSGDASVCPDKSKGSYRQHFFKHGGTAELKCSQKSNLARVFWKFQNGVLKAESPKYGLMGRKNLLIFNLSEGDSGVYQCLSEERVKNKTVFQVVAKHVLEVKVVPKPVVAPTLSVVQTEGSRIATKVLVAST

[2] = target: T3, human SEMA4D_(ecto), C-terminal His-tag (human, UniProt Q92854 22-677); assay: crystal structure
T3 sequence: T2 sequence with D374K

[3] = target: T3, human SEMA4D_(ecto), C-terminal His-tag; assay: SPR
[4] = target: T4, SEMA4D_(ecto)(F244N/F246S) (human, UniProt Q92854 22-677, F244N | F246S); assay: SPR
T4 sequence: T2 sequence with F223N, F225S, D374K

- Kd [1]: 2.3 µM
B1: mouse Sema6A_(ecto), biotinylated at an engineered C-terminal tag (domain or fragment)
chain: GFPEDSEPISISHGNYTKQYPVFVGHKPGRNTTQRHRLDIQMIMIMNRTLYVAARDHIYTVDIDTSHTEEIYCSKKLTWKSRQADVDTCRMKGKHKDECHNFIKVLLKKNDDTLFVCGTNAFNPSCRNYRVDTLETFGDEFSGMARCPYDAKHANIALFADGKLYSATVTDFLAIDAVIYRSLGDSPTLRTVKHDSKWLKEPYFVQAVDYGDYIYFFFREIAVEYNTMGKVVFPRVAQVCKNDMGGSQRVLEKQWTSFLKARLNCSVPGDSHFYFNILQAVTDVIRINGRDVVLATFSTPYNSIPGSAVCAYDMLDIANVFTGRFKEQKSPDSTWTPVPDERVPKPRPGCCAGSSSLEKYATSNEFPDDTLNFIKTHPLMDEAVPSIINRPWFLRTMVRYRLTKIAVDNAAGPYQNHTVVFLGSEKGIILKFLARIGSSGFLNGSLFLEEMNVYNPEKCSYDGVEDKRIMGMQLDRASGSLYVAFSTCVIKVPLGRCERHGKCKKTCIASRDPYCGWVRESGSCAHLSPLSRLTFEQDIERGNTDGLGDCHNS
modifications: biotin on the engineered C-terminal tag (enzymatic)

- binding result [1]: binds
B2: Sema6A_(ecto)(I322E), coupled to the chip (domain or fragment, mouse, UniProt O35464 19-571, looked up)
chain: B1 chain with I304E
modifications: biotin on the engineered C-terminal tag (enzymatic)

Further lines, the binder ahead of its results:

B3: mouse Sema6A_(ecto), C-terminal His-tag (domain or fragment)
chain: B1 chain
- fold weaker binding than wild type (PlxnA2_(1–4)(D193K)): > 9 fold

B4: PLXNB1_(1–2)(D139K) (domain or fragment)
chain: LQPLPPTAFTPNGTYLQHLARDPTSGTLYLGATNFLFQLSPGLQLEATVSTGPVLDSRDCLPPVMPDECPQAQPTNNPNQLLLVSPGALVVCGSVHQGVCEQRRLGQLEQLLLRPERPGKTQYVAANDPAVSTVGLVAQGLAGEPLLFVGRGYTSRGVGGGIPPITTRALWPPDPQAAFSYEETAKLAVGRLSEYSHHFVSAFARGASAYFLFLRRDLQAQSRAFRAYVSRVCLRDQHYYSYVELPLACEGGRYGLIQAAAVATSREVAHGEVLFAAFSSAAPPTVGRPPSAAAGASGASALCAFPLDEVDRLANRTRDACYTREGRAEDGTEVAYIEYDVNSDCAQLPVDTLDAYPCGSDHTPSPMASRVPLEATPILEWPGIQLTAVAVTMEDGHTIAFLGDSQGQLHRVYLGPGSDGHPYSTQSIQQGSAVSRDLTFDGTFEHLYVMTQSTLLKVPVASCAQHLDCASCLAHRDPYCGWCVLLGRCSRRSECSRGQGPEQWLWSFQPELGCLQ
- binding result (SEMA4D_(ecto)(K395D)): binds

B5: human PLXNB1_(1–2), C-terminal His-tag (domain or fragment)
chain: B4 chain with K120D
- binding result [2]: binds

B6: human PLXNB1_(1–2), biotinylated at an engineered C-terminal tag (domain or fragment)
chain: B4 chain with K120D
modifications: biotin on the engineered C-terminal tag (enzymatic)
- binding result [3]: binds
- Kd [4]: 5.5 µM
